Results on three molecules are retold here after publication PMC10696041, “Identification of PCPE-2 as the endogenous specific inhibitor of human BMP-1/tolloid-like proteinases” (Nature Communications, 2023).

B1: CUB1CUB2 domains of PCPE-2 generated from PCPE-2 3C (domain or fragment, human, UniProt Q9UKZ9 24-270, looked up)
chain: QSPERPVFTCGGILTGESGFIGSEGFPGVYPPNSKCTWKITVPEGKVVVLNFRFIDLESDNLCRYDFVDVYNGHANGQRIGRFCGTFRPGALVSSGNKMMVQMISDANTAGNGFMAMFSAAEPNERGDQYCGGLLDRPSGSFKTPNWPDRDYPAGVTCVWHIVAPKNQLIELKFEKFDVERDNYCRYDYVAVFNGGEVNDARRIGKYCGDSPPAPIVSERNELLIQFLSDLSLTADGFIGHYIFRPK
notes: human PCPE-2 from its beginning to amino-acid 270; an HRV 3C-protease site was inserted between amino-acids 270 and 271 of full-length human PCPE-2; Residues of the two 3C sites are probably left on both ends after cleavage; also called the CUB domains of PCPE-2; not shown: His6, N-terminal, cleaved
B2: procollagen C-proteinase enhancer-2 with N-terminal 6His-tag (natural protein, human, UniProt Q9UKZ9 24-415, looked up)
chain: QSPERPVFTCGGILTGESGFIGSEGFPGVYPPNSKCTWKITVPEGKVVVLNFRFIDLESDNLCRYDFVDVYNGHANGQRIGRFCGTFRPGALVSSGNKMMVQMISDANTAGNGFMAMFSAAEPNERGDQYCGGLLDRPSGSFKTPNWPDRDYPAGVTCVWHIVAPKNQLIELKFEKFDVERDNYCRYDYVAVFNGGEVNDARRIGKYCGDSPPAPIVSERNELLIQFLSDLSLTADGFIGHYIFRPKKLPTTTEQPVTTTFPVTTGLKPTVALCQQKCRRTGTLEGNYCSSDFVLAGTVITTITRDGSLHATVSIINIYKEGNLAIQQAGKNMSARLTVVCKQCPLLRRGLNYIIMGQVGEDGRGKIMPNSFIMMFKTKNQKLLDALKNKQC
notes: human PCPE-2, called full-length; two mutations of the bought clone (829 G>T, 874 C>A) were corrected; The most widely used PCPE-2 construct of the study; also called PCPE-2; PCPE-2[Nter-6His]; not shown: His6, N-terminal, kept

What all share (conditions): both partners purified
Experiment [1] has as its target T1, bone morphogenetic protein-1 (human, UniProt P13497-2 121-730).
T1 construct: human BMP-1, the BMP-1 (BMP-1-1) splice variant of the BMP1 gene with CUB1-CUB2-EGF-CUB3 auxiliary domains; called full-length BMP-1 against the deletion mutants; also called BMP-1; BMP-1-1; source: Supplementary Methods
T1 sequence (looked up): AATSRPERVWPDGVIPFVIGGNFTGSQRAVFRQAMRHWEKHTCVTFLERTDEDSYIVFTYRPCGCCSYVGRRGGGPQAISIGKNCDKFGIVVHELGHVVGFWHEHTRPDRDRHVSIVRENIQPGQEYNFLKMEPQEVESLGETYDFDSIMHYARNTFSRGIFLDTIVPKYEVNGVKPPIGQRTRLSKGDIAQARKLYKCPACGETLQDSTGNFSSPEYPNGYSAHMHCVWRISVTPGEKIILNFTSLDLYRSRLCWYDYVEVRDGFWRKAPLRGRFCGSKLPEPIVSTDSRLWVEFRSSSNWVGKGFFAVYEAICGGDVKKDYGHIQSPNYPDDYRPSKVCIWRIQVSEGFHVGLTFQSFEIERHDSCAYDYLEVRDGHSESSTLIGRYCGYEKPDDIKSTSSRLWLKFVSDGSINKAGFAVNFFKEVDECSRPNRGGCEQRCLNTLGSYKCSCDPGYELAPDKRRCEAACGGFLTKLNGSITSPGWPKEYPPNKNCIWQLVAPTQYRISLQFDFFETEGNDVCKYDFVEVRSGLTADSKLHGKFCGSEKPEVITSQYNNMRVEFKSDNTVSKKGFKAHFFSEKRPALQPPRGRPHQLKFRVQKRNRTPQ
Kind of experiment: SPR; BMP-1 immobilised by amine coupling on CM5 (974, 1302 or 1492 RU); 10 mM HEPES pH 7.4, 0.15 M NaCl, 5 mM CaCl2, 0.05% P20, 25 °C; PCPE-2 1.56-100 nM with steady-state fit (heterogeneous ligand model for kinetics), 50 nM for comparisons. In general terms: SPR reads the build-up and loss of mass on a sensor chip optically.

Experiment [2] addresses T1, bone morphogenetic protein-1. Briefly: enzyme inhibition assay (fluorogenic peptide cleavage); apparent; 7 nM BMP-1, 20 µM Mca-YVADAPK(Dnp)-OH, PCPE-2 0.07-690 nM, 50 mM HEPES pH 7.4, 5 mM CaCl2, 0.02% βOG, 37 °C; Morrison equation for tight-binding inhibitors with a constant for partial inhibition.
Experiment [3] concerns the target B2. Kind of experiment: SPR; mini-procollagen III immobilised by amine coupling on CM5 (435, 437 or 651 RU); analytes in 10 mM HEPES pH 7.4, 0.15 M NaCl, 5 mM CaCl2, 0.05% P20, 25 °C; steady-state fit for constants, 50 nM single injections for the CUB1CUB2* mutants.
Experiment [4] deals with T2, procollagen C-proteinase enhancer 1, native form with no His tag (human, UniProt Q15113 26-449).
T2 construct: PCPE-1, native form with no His tag, used in the SPR analyses; The activity assays used another form, PCPE-1[Cter-8His]; also called PCPE-1
T2 sequence (looked up): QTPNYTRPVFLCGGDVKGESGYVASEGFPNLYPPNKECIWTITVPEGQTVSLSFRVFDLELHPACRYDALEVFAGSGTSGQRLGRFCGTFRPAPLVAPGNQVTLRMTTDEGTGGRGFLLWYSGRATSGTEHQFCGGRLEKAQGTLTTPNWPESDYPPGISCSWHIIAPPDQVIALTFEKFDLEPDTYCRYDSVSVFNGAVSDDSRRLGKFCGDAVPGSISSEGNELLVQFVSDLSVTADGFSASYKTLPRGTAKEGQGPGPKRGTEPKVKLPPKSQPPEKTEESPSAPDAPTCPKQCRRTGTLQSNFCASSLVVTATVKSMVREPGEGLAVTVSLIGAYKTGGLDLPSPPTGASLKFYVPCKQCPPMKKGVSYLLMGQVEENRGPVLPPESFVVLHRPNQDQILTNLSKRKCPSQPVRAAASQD
The description is as above.

The target of experiment [5] is B1. The experiment is described as above.

Turning to B1, the binding result in experiment [1] is recorded as “binds”.
For the molecule B2, the Ki in experiment [2] amounted to 2.8 nM. Besides, the Kd in experiment [1] came to 8.4 nM.

B3: mini-procollagen III (domain or fragment)
chain: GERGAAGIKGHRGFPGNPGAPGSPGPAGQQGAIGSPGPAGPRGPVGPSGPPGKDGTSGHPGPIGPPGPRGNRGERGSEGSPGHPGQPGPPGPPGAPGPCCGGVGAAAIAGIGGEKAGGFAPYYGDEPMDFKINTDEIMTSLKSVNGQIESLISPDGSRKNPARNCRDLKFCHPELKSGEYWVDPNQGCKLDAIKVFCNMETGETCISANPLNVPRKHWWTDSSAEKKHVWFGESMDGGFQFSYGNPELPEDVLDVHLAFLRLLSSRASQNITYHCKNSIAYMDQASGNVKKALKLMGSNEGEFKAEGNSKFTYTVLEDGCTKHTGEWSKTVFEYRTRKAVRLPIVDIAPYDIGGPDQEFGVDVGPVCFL
modifications: Homotrimer. The paper does not print the limits. The start assumes the last 33 Gly-X-Y triplets (helix end at 1196), recalled from earlier descriptions of this construct, followed by the intact …
Regarding B3, the Kd in experiment [3] is 11 nM; in experiment [4], 2.2 nM; in experiment [5] it was roughly 30 nM.

A word on the Kd: it is the equilibrium constant for the complex coming apart.
